Data published in publication PMC4236683, “Semaphorin 5A inhibits synaptogenesis in early postnatal- and adult-born hippocampal dentate granule cells” (eLife, 2014).

Tests used:
[1] = molecular target: T1, full-length PlexA2 with an N-terminal 6xMyc tag (mouse, UniProt P70207 35-1894); experiment: saturation binding of AP-clustered Fc fusion protein to transfected cells; saturation binding curve of Sema5A-Fc, oligomerized with anti-Fc conjugated to human placental alkaline phosphatase, on COS7 cells expressing PlexA1 or PlexA2; details: one partner purified
T1 construct: Plexin-A2, mouse, full length (FL); written as one molecule; also called PlexinA2; Myc-FL-A2; source: COS7, transiently transfected, on cells; HEK293T, transfected, in lysate; not shown: 6xMyc, N-terminal, kept
T1 sequence (P70207 35-1894): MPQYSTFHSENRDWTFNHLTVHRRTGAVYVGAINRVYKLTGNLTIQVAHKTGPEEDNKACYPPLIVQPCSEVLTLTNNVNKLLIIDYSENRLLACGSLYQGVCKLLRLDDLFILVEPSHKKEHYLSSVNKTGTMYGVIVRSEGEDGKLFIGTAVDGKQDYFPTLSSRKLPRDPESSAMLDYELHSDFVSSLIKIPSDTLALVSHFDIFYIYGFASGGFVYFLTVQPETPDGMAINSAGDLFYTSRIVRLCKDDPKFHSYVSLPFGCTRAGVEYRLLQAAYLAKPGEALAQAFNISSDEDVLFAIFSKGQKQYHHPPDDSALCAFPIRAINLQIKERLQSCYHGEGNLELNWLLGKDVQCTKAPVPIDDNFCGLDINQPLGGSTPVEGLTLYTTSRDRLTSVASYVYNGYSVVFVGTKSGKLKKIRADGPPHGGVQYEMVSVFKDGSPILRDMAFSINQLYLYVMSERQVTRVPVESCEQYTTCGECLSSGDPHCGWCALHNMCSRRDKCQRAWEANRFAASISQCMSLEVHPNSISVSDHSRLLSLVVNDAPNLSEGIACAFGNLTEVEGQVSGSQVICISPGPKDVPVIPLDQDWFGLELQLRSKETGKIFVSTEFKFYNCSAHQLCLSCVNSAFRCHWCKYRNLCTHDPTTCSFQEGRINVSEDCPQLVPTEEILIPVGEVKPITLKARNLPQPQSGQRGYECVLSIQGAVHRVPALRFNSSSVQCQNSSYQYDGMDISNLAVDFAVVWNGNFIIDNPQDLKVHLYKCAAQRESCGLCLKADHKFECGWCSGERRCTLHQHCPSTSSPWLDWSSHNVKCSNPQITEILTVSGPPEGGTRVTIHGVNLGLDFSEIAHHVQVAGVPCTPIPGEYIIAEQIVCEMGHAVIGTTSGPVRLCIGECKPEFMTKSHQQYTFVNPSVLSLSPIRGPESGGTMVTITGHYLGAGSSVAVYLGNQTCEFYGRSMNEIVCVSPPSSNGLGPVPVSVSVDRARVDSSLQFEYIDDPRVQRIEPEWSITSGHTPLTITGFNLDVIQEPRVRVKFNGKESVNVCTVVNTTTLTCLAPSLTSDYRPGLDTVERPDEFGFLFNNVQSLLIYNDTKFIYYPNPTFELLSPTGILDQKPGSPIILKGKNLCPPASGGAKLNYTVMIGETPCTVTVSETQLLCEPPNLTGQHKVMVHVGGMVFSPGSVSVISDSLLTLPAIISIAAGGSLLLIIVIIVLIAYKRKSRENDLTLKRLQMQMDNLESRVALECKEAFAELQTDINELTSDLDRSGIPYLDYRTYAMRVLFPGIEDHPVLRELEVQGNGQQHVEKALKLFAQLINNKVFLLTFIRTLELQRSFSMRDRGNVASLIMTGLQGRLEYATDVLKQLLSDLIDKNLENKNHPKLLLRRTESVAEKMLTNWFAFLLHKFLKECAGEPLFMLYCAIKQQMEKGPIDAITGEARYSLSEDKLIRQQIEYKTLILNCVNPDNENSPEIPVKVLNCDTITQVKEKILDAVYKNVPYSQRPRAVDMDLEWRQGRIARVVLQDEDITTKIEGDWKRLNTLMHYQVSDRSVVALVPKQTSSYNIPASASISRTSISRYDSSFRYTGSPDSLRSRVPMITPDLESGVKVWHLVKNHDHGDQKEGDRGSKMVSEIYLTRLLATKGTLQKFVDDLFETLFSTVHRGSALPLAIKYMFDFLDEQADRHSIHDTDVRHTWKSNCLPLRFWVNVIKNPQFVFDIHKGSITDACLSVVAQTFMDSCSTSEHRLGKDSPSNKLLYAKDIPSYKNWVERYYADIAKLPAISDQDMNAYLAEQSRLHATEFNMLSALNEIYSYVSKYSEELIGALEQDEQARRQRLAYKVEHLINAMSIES

[2] = molecular target: T2, full-length PlexA1 with an N-terminal 6xMyc tag (mouse, UniProt P70206 28-1894); experiment: as above; details: one partner purified
T2 construct: Plexin-A1, mouse, full length (FL); written as one molecule; also called PlexinA1; Myc-FL-A1; source: COS7, transiently transfected, on cells; HEK293T, transfected, in lysate; not shown: 6xMyc, N-terminal, kept
T2 sequence (P70206 28-1894): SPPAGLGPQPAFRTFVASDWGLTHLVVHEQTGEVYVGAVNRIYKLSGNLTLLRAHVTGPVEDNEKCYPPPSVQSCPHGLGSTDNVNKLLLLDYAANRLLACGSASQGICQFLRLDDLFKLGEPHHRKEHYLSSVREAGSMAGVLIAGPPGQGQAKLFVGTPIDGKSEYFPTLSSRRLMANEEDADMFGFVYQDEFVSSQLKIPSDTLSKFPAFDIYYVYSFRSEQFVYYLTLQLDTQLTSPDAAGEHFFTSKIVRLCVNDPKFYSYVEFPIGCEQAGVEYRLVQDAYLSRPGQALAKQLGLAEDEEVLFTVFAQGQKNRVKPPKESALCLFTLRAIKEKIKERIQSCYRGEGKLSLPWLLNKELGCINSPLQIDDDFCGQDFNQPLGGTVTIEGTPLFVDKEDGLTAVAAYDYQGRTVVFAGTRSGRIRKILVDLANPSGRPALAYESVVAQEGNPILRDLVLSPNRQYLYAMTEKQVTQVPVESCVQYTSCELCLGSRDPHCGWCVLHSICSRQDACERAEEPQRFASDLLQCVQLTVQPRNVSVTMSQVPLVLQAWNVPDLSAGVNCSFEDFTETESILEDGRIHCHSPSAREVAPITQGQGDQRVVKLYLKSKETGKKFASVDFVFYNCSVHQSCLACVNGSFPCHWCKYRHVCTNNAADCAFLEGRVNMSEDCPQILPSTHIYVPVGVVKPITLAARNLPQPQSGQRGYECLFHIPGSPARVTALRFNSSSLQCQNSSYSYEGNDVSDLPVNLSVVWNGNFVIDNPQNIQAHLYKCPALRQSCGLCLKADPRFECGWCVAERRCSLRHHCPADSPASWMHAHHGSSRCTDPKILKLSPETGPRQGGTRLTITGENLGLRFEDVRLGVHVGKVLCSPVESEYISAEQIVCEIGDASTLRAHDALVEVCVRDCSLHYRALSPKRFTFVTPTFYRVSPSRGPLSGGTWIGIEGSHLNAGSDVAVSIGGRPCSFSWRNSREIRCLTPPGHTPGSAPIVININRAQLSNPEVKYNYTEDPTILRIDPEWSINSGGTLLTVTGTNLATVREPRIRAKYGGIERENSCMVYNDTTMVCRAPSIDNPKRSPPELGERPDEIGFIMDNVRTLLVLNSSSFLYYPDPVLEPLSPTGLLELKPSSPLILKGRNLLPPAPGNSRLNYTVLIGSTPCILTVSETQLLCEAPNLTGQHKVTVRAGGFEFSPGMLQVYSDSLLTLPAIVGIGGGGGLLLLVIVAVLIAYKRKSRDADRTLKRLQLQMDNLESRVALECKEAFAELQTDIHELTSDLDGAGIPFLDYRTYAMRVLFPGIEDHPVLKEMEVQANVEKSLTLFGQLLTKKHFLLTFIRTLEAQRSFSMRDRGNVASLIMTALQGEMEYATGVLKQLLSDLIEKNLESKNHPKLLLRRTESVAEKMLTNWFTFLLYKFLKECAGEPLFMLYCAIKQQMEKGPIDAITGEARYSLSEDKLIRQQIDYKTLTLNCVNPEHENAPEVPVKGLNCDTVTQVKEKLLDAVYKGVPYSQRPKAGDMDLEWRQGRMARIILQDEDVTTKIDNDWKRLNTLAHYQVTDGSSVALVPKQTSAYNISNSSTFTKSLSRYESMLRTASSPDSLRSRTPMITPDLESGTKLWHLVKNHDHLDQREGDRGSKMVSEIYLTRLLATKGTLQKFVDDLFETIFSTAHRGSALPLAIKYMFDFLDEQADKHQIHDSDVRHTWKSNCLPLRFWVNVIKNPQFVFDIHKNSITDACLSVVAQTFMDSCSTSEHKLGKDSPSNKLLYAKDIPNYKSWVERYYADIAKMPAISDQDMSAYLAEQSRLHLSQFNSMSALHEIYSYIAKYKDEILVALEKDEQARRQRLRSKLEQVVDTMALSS

Kd [1]: 13 nM
Kd [2]: 10 nM
B1: Sema5A-Fc (Sema5A ectodomain fused to Fc) (Fc fusion, rat, UniProt D3ZTD8 23-961, looked up)
chain: ETQDPAKCQRAEHPVVSYKEIGPWLREFRAENAVDFSRLTFDPGQKELVVGARNYLFRLQLEDLSLIQAVQWECDEATKKACYSKGKSKEECQNYIRVLLVGGDRLFTCGTNAFTPVCTIRSLSNLTEIHDQISGMARCPYSPQHNSTALLTASGELYAATAMDFPGRDPAIYRSLGTLPPLRTAQYNSKWLNEPNFVSSYDIGNFTYFFFRENAVEHDCGKTVFSRAARVCKNDIGGRFLLEDTWTTFMKARLNCSRPGEVPFYYNELQSTFFLPELDLIYGIFTTNVNSIAASAVCVFNLSAISQAFNGPFKYQENSRSAWLPYPNPNPNFQCGTMDQGLYVNLTERNLQDAQKFILMHEVVQPVTTVPSFMEDNSRFSHVAVDVVQGRDTLVHIIYLATDYGTIKKVRAPLSQSSGSCLLEEIELFPERKSEPIRSLKILHSQSVLFVGLQEHVVKIPLKRCHFHQTRGACIGAQDPYCGWDAVMKKCTSLEESLSMTQWDQSVPTCPTRNLTVDGSFGPWSPWTPCTHTDGTAVGSCLCRSRSCDSPAPQCGGWQCEGPRMEITNCSRNGGWTPWTSWSPCSTTCGIGFQVRQRSCSNPTPRHGGRVCVGQNREERYCNEHLLCPPHVFWTGWGPWERCTAQCGGGIQARRRTCENGPDCAGCNVEYQPCNTNACPELKKTTPWTPWTPVNISDNGGHYEQRFRYTCKARLPDPNLLEVGRQRIEMRYCSSDGTSGCSTDGLSGDFLRAGRYSAHTVNGAWSAWTSWSQCSRDCSRGIRNRKRVCNNPEPKYGGMPCLGPSLEFQECNILPCPVDGVWSCWSSWSKCSATCGGGHYMRTRSCTNPAPAYGGDICLGLHTEEALCNTQTCPENWSEWSEWSVCDASGTQVRTRQCILLFPVGSQCSGNTTESRPCVFDSNFIPEVSVARSSSVEEK
notes: signal peptide in the construct; Sema5A ectodomain, rat cDNA NM_001107659, residues 1-961; Assembled in pcDNA3.0; also called Fc-tagged Sema5A ectodomain protein
